Laboratory results reported in patent US9192657B2, “Activated protein C variants with normal cytoprotective activity but reduced anticoagulant activity” (The Scripps Research Institute, dated 2015).
Changes are numbered by the printed parent chain. Numbers in names are those of the source.

Tests used:
[1] = target: T1, endothelial protein C receptor (EPCR) on cells (Homo sapiens (Human), UniProt Q9UNN8); assay: cell-based or functional assay
T1 sequence: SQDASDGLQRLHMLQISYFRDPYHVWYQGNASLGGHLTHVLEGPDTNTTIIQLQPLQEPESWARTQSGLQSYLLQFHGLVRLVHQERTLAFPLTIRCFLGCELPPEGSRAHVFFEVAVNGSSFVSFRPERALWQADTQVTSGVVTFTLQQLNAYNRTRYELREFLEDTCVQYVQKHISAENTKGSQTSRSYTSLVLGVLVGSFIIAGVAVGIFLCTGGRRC

[2] = target: T2, protease activated receptor-1 (PAR-1) (Homo sapiens (Human), UniProt P25116); assay: cell-based or functional assay
T2 sequence: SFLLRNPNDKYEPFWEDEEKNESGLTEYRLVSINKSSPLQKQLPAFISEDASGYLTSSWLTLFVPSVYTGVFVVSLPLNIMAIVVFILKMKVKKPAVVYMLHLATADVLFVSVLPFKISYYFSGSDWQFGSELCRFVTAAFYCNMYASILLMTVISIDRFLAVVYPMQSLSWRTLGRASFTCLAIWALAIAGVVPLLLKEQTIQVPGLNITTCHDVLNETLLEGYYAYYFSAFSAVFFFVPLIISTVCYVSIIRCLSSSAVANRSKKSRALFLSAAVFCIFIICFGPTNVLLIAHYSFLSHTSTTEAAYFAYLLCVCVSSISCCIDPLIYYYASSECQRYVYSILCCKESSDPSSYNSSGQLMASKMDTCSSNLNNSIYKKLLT

[3] = target: T3, endothelial protein C receptor (EPCR), as in the binding assays (Homo sapiens (Human), UniProt Q9UNN8); assay: apparent Kd; binding to immobilized soluble EPCR and to K293 cells transfected with wtEPCR (format of the value not told)
T3 sequence: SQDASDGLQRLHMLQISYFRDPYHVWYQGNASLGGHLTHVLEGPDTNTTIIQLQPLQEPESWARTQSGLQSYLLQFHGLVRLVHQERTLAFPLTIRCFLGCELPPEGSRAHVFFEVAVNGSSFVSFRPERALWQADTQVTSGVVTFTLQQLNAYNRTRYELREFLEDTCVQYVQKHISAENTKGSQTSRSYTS

[4] = target: T1, endothelial protein C receptor (EPCR) …; assay: cell-based or functional assay; remark: listed apart in the source
[5] = target: T2, protease activated receptor-1 (PAR-1); assay: cell-based or functional assay; remark: listed apart in the source
[6] = target: T1, endothelial protein C receptor (EPCR) …; assay: cell-based or functional assay; remark: listed apart in the source
[7] = target: T2, protease activated receptor-1 (PAR-1); assay: cell-based or functional assay; remark: listed apart in the source
factor Va = factor Va (human, UniProt P12259); assay: cell-based or functional assay

B1: RR229/230AA plus KKK191-193AAA-APC (enzyme)
chain: ANSFLEELRHSSLERECIEEICDFEEAKEIFQNVDDTLAFWSKHVDGDQCLVLPLEHPCASLCCGHGTCIDGIGSFSCDCRSGWEGRFCQREVSFLNCSLDNGGCTHYCLEEVGWRRCSCAPGYKLGDDLLQCHPAVKFPCGRPWKRMEKKRSHLKRDTEDQEDQVDPRLIDGKMTRRGDSPWQVVLLDSAAALACGAVLIHPSWVLTAAHCMDESKKLLVRLGEYDLAAWEKWELDLDIKEVFVHPNYSKSTTDNDIALLHLAQPATLSQTIVPICLPDSGLAERELNQAGQETLVTGWGYHSSREKEAKRNRTFVLNFIKIPVVPHNECSEVMSNMVSENMLCAGILGDRQDACEGDSGGPMVASFHGTWFLVGLVSWGEGCGLLHNYGVYTKVSRYLDWIHGHIRDKEAPQKSWAP
half-maximum inhibition of staurosporine-induced endothelial cell apoptosis (Example 5) [1]: 0.7 nM | half-maximum inhibition of staurosporine-induced endothelial cell apoptosis (Example 5) [2]: 0.7 nM | Kd [3]: 29 nM

B2: KKK191-193AAA-APC (enzyme)
chain: B1 chain with A229R, A230R
half-maximum inhibition of staurosporine-induced apoptosis (EA.hy926 cells, Apopercentage dye) [1]: 0.14 nM | half-maximum inhibition of staurosporine-induced apoptosis (Eahy926 cells, Apopercentage staining) [1]: 0.2 nM | reduction of activated caspase-3-positive endothelial cells after staurosporine [1]: ~70% | half-maximum inhibition of staurosporine-induced apoptosis (EA.hy926 cells, Apopercentage dye) [2]: 0.14 nM | half-maximum inhibition of staurosporine-induced apoptosis (Eahy926 cells, Apopercentage staining) [2]: 0.2 nM | reduction of activated caspase-3-positive endothelial cells after staurosporine [2]: ~70% | cytoprotective activity (% wt-APC) [4]: 120 % wt-APC | cytoprotective activity (% wt-APC) [5]: 120 % wt-APC | cytoprotective activity (% rwt-APC), from the concentrations for half-maximal inhibition of apoptosis [6]: 114 % rwt-APC | cytoprotective activity (% rwt-APC), from the concentrations for half-maximal inhibition of apoptosis [7]: 114 % rwt-APC | anticoagulant activity (% rwt-APC), APTT clotting assay in human plasma (factor Va): 4.6 % rwt-APC

B3: R306A/K311A/R312A/R314A-APC (enzyme)
chain: B1 chain with A191K, A192K, A193K, A229R, A230R, R306A, K311A, R312A, R314A
cytoprotective activity (% wt-APC), staurosporine-induced apoptosis of Eahy926 cells [4]: < 1 % wt-APC | cytoprotective activity (% wt-APC), staurosporine-induced apoptosis of Eahy926 cells [5]: < 1 % wt-APC
